The target of assay [1] is DNA topoisomerase I (TopoI) of Streptococcus pneumoniae (S. pneumoniae). Kind of assay: SPR; Biacore X100; about 3000 RU of TopoI immobilised on a CM5 chip by amine coupling; RNAP holoenzyme 7.5-240 nM flowed at 50 ul/min; 25 C; 20 mM Tris HCl pH 7.5, 100 mM NaCl, 10 mM MgCl2, 0.1 mM EDTA, 1 mM DTT, 0.005% Tween-20, 5% glycerol; regeneration with 1 M NaCl; kinetic fit; two independent assays. In general terms: In SPR one partner is held on a chip, and binding of the other changes the refractive index at the surface.

For assay [2] the target is unchanged. Kind of assay: SPR; TopoI immobilised on a new CM5 chip; RNAP holoenzyme 240 nM incubated with 1 x MIC rifampicin (Rif).
Assay [3] has the same target. Kind of assay: SPR; TopoI immobilised on a new CM5 chip; RNAP holoenzyme 240 nM incubated with 1 x MIC seconeolitsine (SCN).
Assay [4] has the same target. The assay can be described thus: SPR; TopoI immobilised on a new CM5 chip; RNAP holoenzyme 240 nM injected alone (no drug).
The target in assay [5] is RNA polymerase (Escherichia coli) (UniProt P0A7Z4). The note with it: cited from earlier work.

The text below walks through data of article PMC8115823.

By Kd is commonly meant the constant that tells how readily two partners part at equilibrium.

Chain of DNA topoisomerase I (P06612 whole entry): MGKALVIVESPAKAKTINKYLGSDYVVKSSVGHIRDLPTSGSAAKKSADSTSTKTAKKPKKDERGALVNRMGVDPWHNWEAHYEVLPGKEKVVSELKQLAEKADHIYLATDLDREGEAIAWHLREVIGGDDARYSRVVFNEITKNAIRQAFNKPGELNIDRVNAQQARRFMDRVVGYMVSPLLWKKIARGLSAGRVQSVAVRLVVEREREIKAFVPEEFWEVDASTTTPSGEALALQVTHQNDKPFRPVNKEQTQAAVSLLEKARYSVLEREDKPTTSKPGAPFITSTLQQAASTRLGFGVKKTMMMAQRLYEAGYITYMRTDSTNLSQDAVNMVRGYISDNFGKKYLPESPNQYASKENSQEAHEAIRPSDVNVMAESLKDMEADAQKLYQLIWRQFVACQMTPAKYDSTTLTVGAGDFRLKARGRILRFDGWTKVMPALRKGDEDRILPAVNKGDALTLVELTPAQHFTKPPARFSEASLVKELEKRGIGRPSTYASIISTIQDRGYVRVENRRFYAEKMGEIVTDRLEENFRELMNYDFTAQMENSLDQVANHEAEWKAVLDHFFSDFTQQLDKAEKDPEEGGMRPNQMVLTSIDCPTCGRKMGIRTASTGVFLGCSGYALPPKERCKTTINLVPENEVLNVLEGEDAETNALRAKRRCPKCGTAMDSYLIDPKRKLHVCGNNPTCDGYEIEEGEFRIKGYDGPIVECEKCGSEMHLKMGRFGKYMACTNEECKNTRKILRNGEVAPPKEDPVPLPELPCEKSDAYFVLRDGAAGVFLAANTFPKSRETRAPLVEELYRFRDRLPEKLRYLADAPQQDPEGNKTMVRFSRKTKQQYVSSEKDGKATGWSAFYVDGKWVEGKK

In assay [1], “RNA polymerase (RNAP) holoenzyme of Streptococcus pneumoniae (from UniProt P66708 1-311; A0A0H2ZQA1 1-369) (complex)” yielded a Kd of 27 nM. Moreover, the SPR response with Rif in assay [2] stood at 122 RU. This substance gave an SPR response with SCN in assay [3] of 40.9 RU. Also, the SPR response (no drug) in assay [4] worked out at 173 RU.
On to “DNA topoisomerase I (from UniProt P06612)”, for which the Kd in assay [5] is 93 nM.
